In the Immune Epitope Database (IEDB):

Tests used:
HLA-A*24:02 = assay: IEDB peptide-MHC binding, purified MHC/competitive/radioactivity; filed as Kd, often an IC50 or EC50 that approximates it; ≥ and ≤ were set here for values at or beyond the usual limits of such assays
HLA-A*26:01 = assay: as above
HLA-A*29:02 = assay: as above
HLA-A*30:02 = assay: as above
HLA-A*23:01 = assay: as above
HLA-A*01:01 = assay: as above
HLA-A*30:01 = assay: as above
HLA-A*02:01 = assay: IEDB peptide-MHC binding, purified MHC/competitive/fluorescence; ≥ and ≤ were set here for values at or beyond the usual limits of such assays
HLA-A*02:06 = assay: IEDB peptide-MHC binding, purified MHC/competitive/radioactivity; filed as Kd, often an IC50 or EC50 that approximates it; ≥ and ≤ were set here for values at or beyond the usual limits of such assays; conditions: source organism: Dengue virus 2 Jamaica/1409/1983
HLA-A*33:01 = assay: as above; conditions: source organism: Mammarenavirus brazilense
HLA-A*68:01 = assay: as above
HLA-A*31:01 = assay: as above; conditions: source organism: Mammarenavirus brazilense
HLA-A*03:01 = assay: as above
[1] = source organism: SARS coronavirus Tor2
[2] = source organism: Vaccinia virus WR
[3] = source organism: Zaire ebolavirus
[4] = source organism: Dengue virus 1 Brazil/97-11/1997
[5] = source organism: Dengue virus 4 Philippines/H241/1956
[6] = source organism: Dengue virus 2 Jamaica/1409/1983
[7] = source organism: Mammarenavirus brazilense
[8] = source organism: Lassa virus Josiah
[9] = source organism: Mammarenavirus machupoense
[10] = source organism: Dengue virus 3 Martinique/1243/1999
[11] = source organism: Mammarenavirus guanaritoense
[12] = source organism: Sudan ebolavirus

Sequence: LAAEWVLAY
- Kd (HLA-A*24:02; [1]): ≥ 41100 nM
- Kd (HLA-A*26:01; [1]): 75.2 nM
- Kd (HLA-A*29:02; [1]): 0.47 nM
- Kd (HLA-A*30:02; [1]): 16.3 nM
- Kd (HLA-A*23:01; [1]): ≥ 40300 nM
- Kd (HLA-A*01:01; [1]): 35.5 nM

Sequence: KISISSLCK
- Kd (HLA-A*30:01; [2]): 88.1 nM

Sequence: HSLISNLLV
- Kd (HLA-A*30:01; source organism: Vaccinia virus Copenhagen): 558 nM

Sequence: FARLLNLSG
- IC50 (HLA-A*02:01; [3]): 48200 nM

Sequence: TWSIHAHHQW
- Kd (HLA-A*24:02; [4]): 1080 nM
- Kd (HLA-A*23:01; [4]): 950 nM

Sequence: ERNRVSTPQG
- Kd (HLA-A*30:01; [5]): 121 nM

Sequence: LLNLSGVNN
- IC50 (HLA-A*02:01; [3]): ≥ 167000 nM

Sequence: GTKIALLEL
- Kd (HLA-A*30:01; [2]): 1.34 nM

Sequence: KTMGSCIQM
- Kd (HLA-A*30:01; [2]): 52.3 nM

Sequence: STIPETILEL
- Kd (HLA-A*26:01; [6]): 831 nM
- Kd (HLA-A*02:06): 79.6 nM

Sequence: EHSWNADLY
- Kd (HLA-A*24:02; [1]): ≥ 77600 nM
- Kd (HLA-A*26:01; [1]): 4410 nM
- Kd (HLA-A*29:02; [1]): 295 nM
- Kd (HLA-A*30:02; [1]): 45.1 nM
- Kd (HLA-A*23:01; [1]): ≥ 77800 nM
- Kd (HLA-A*01:01; [1]): ≥ 69400 nM

Sequence: SSQRDTILK
- Kd (HLA-A*33:01): ≥ 24200 nM
- Kd (HLA-A*30:01; [7]): 46.5 nM
- Kd (HLA-A*68:01; [7]): 388 nM
- Kd (HLA-A*31:01): 2570 nM
- Kd (HLA-A*03:01; [7]): 270 nM

Sequence: KMRDTLPAK
- Kd (HLA-A*30:01; [2]): 1.58 nM

Sequence: LYALITEQF
- Kd (HLA-A*24:02; [7]): 16.8 nM
- Kd (HLA-A*29:02; [7]): 731 nM
- Kd (HLA-A*23:01; [7]): 2.79 nM

Sequence: HVKIPTHLT
- Kd (HLA-A*30:01; [2]): 224 nM

Sequence: YCNYSKYWY
- Kd (HLA-A*24:02; [8]): ≥ 44400 nM
- Kd (HLA-A*26:01; [8]): ≥ 77900 nM
- Kd (HLA-A*29:02; [8]): 713 nM
- Kd (HLA-A*30:02; [8]): 668 nM
- Kd (HLA-A*23:01; [8]): 13600 nM
- Kd (HLA-A*01:01; [8]): 15800 nM

Sequence: FFQEVPHVI
- Kd (HLA-A*24:02; [8]): 713 nM
- Kd (HLA-A*29:02; [8]): 508 nM
- Kd (HLA-A*23:01; [8]): 239 nM

Sequence: RAEVSLHEV
- Kd (HLA-A*24:02; [9]): ≥ 77500 nM
- Kd (HLA-A*26:01; [9]): ≥ 77900 nM
- Kd (HLA-A*29:02; [9]): ≥ 78900 nM
- Kd (HLA-A*30:02; [9]): ≥ 41200 nM
- Kd (HLA-A*23:01; [9]): ≥ 77700 nM
- Kd (HLA-A*01:01; [9]): ≥ 66200 nM

Sequence: IDQIIHDFV
- IC50 (HLA-A*02:01; [3]): ≥ 195000 nM

Sequence: SVIDCNTCV
- IC50 (HLA-A*02:01; source organism: Hepatitis C virus genotype 1): 5000 nM

Sequence: TYHPNCINCL
- Kd (HLA-A*24:02; [1]): 663 nM
- Kd (HLA-A*26:01; [1]): ≥ 69700 nM
- Kd (HLA-A*29:02; [1]): 5580 nM
- Kd (HLA-A*30:02; [1]): ≥ 37200 nM
- Kd (HLA-A*23:01; [1]): 1150 nM
- Kd (HLA-A*01:01; [1]): ≥ 70400 nM

Sequence: RVSTGSQLA
- Kd (HLA-A*30:01; [4]): 81.3 nM

Sequence: RTTWSIHAK
- Kd (HLA-A*30:01; [6]): 80.9 nM
- Kd (HLA-A*03:01; [6]): 6.99 nM

Sequence: TWLVHKQWFL
- Kd (HLA-A*23:01; [5]): 124 nM

Sequence: TTIAVSMAN
- Kd (HLA-A*26:01; [6]): 5160 nM

Sequence: SFGCKPLTMF
- Kd (HLA-A*23:01; [4]): 103 nM

Sequence: KSRVERVQV
- Kd (HLA-A*30:01; [2]): 11.2 nM

Sequence: LYIAENGEL
- Kd (HLA-A*24:02; [7]): 1680 nM
- Kd (HLA-A*29:02; [7]): ≥ 20700 nM
- Kd (HLA-A*23:01; [7]): 247 nM

Sequence: FYFTNDVSF
- Kd (HLA-A*24:02; [1]): 2800 nM
- Kd (HLA-A*26:01; [1]): ≥ 22300 nM
- Kd (HLA-A*29:02; [1]): 413 nM
- Kd (HLA-A*30:02; [1]): ≥ 96800 nM
- Kd (HLA-A*23:01; [1]): 1490 nM
- Kd (HLA-A*01:01; [1]): 17100 nM

Sequence: VYKEGTFHTM
- Kd (HLA-A*24:02; [6]): 14.7 nM

Sequence: LWMAEIPLQW
- Kd (HLA-A*24:02; [10]): 38.6 nM
- Kd (HLA-A*23:01; [10]): 13.7 nM

Sequence: KVHEISARG
- Kd (HLA-A*30:01; [2]): 176 nM

Sequence: KVNPEIDTT
- IC50 (HLA-A*02:01; [3]): ≥ 120000 nM

Sequence: GLITNTIAG
- IC50 (HLA-A*02:01; [3]): 4100 nM

Sequence: ETAECPNTNR
- Kd (HLA-A*26:01; [6]): 10500 nM
- Kd (HLA-A*68:01; [6]): 13.9 nM

Sequence: ATWAENIQV
- IC50 (HLA-A*02:01; source organism: West Nile virus NY-99): 780 nM

Sequence: HHANEYRQY
- Kd (HLA-A*24:02; [1]): ≥ 33400 nM
- Kd (HLA-A*26:01; [1]): ≥ 102000 nM
- Kd (HLA-A*29:02; [1]): 12700 nM
- Kd (HLA-A*30:02; [1]): 6960 nM
- Kd (HLA-A*23:01; [1]): ≥ 77800 nM
- Kd (HLA-A*01:01; [1]): ≥ 78100 nM

Sequence: MTDDIGMGVT
- Kd (HLA-A*01:01; [6]): 1130 nM

Sequence: FSGLLIVKT
- IC50 (HLA-A*02:01; [3]): ≥ 370000 nM

Sequence: RVSTVSQLA
- Kd (HLA-A*30:01; source organism: Dengue virus 1 Nauru/West Pac/1974): 355 nM

Sequence: INYCLDFLF
- Kd (HLA-A*24:02; [11]): 1270 nM
- Kd (HLA-A*29:02; [11]): 125 nM
- Kd (HLA-A*23:01; [11]): 56.5 nM

Sequence: ICLSGDGWPY
- Kd (HLA-A*24:02; [8]): ≥ 70300 nM
- Kd (HLA-A*26:01; [8]): ≥ 69700 nM
- Kd (HLA-A*29:02; [8]): 371 nM
- Kd (HLA-A*30:02; [8]): 678 nM
- Kd (HLA-A*23:01; [8]): ≥ 70000 nM
- Kd (HLA-A*01:01; [8]): 6320 nM

Sequence: MPLGVVTNS
- IC50 (HLA-A*02:01; [12]): 13000 nM

Sequence: QDQDHTQEA
- IC50 (HLA-A*02:01; [3]): ≥ 321000 nM

Sequence: GFELTSMKY
- Kd (HLA-A*24:02; [1]): ≥ 77600 nM
- Kd (HLA-A*26:01; [1]): ≥ 81500 nM
- Kd (HLA-A*29:02; [1]): 132 nM
- Kd (HLA-A*30:02; [1]): 1840 nM
- Kd (HLA-A*23:01; [1]): ≥ 77800 nM
- Kd (HLA-A*01:01; [1]): 1750 nM

Sequence: YIESKRGVY
- Kd (HLA-A*24:02; [1]): ≥ 77600 nM
- Kd (HLA-A*26:01; [1]): 735 nM
- Kd (HLA-A*29:02; [1]): 20.3 nM
- Kd (HLA-A*30:02; [1]): 47 nM
- Kd (HLA-A*23:01; [1]): ≥ 77800 nM
- Kd (HLA-A*01:01; [1]): 145 nM

Sequence: GLRQLANET
- IC50 (HLA-A*02:01; [12]): 34200 nM

Sequence: RLGPTLMCL
- IC50 (HLA-A*02:01; source organism: Homo sapiens): 1780 nM
